Laboratory results from the supplement of paper PMC10724198.
± gives the standard deviation of the averaged measurements.

System: Saccharomyces cerevisiae
Assay: protein stability index of tFT-peptide fusion (C-terminal peptide) (PSI (0-1 scale)); higher = more stable (slower turnover)
Details: genetic background: wild type; temperature: 30 C
Description: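 Multiplexed protein stability (MPS) profiling in S. cerevisiae. Random 12-aa peptides (tFT-X12 library) are fused to the C-terminus of a sfGFP-mCherry tandem fluorescent timer, after mCherry and a GGGS linker. Cells are FACS-sorted into 8 mCherry/sfGFP bins and deep-sequenced. The protein stability index (PSI) is the read-weighted bin average, scaled from 0 (unstable) to 1 (stable). Only peptides with >10 reads are reported; cells were grown at 30 °C in SC-His with glucose.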
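Also: PSI is a weighted mean of sequencing reads over stability bins, variants kept only with over 10 reads, mCherry proximal and sfGFP distal, peptide attached via GGGS linker.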

| Sequence | protein stability index |
| --- | --- |
| ICSDGIYTKGLC | 0.66 ± 0.024 |
| ICSFVFTTLFGG | 0.6442 ± 0.0026 |
| ICVSVLIRHREL | 0.545 ± 0.019 |
| IDRSHFAGVIVC | 0.5735 ± 0.0029 |
| IEESNKKIKNEI | 0.713 ± 0.032 |
| IEITERRQKKIQ | 0.699 ± 0.088 |
| IENREVNIVERT | 0.686 ± 0.011 |
| IENVETSLKVVG | 0.651 ± 0.0081 |
| IESKANPRRIEV | 0.696 ± 0.027 |
| IFCCFFPRFPVF | 0.642 ± 0.013 |
| IFKAIDQTYTDK | 0.758 ± 0.15 |
| IFWVGLSYVAEQ | 0.65 ± 0.0084 |
| IGARESGGWSLC | 0.686 ± 0.023 |
| IGFHSGLFYYHC | 0.594 ± 0.056 |
| IGGAPRIETIYP | 0.704 ± 0.074 |
| IGGLAGFGSALT | 0.759 ± 0.12 |
| IGGPIIYTGRLH | 0.682 ± 0.19 |
| IGISIRTAQGEL | 0.674 ± 0.02 |
| IGMICYGKDTQY | 0.726 ± 0.0073 |
| IGRWHCPDLPRH | 0.653 ± 0.12 |
| IGWFGRCGCCCW | 0.714 ± 0.2 |
| IGYSSIYKTTGT | 0.668 ± 0.033 |
| IHLGVLTAFGLS | 0.701 ± 0.032 |
| IIAGGGPARGCG | 0.635 ± 0.0071 |
| IIGPFDSYVYGL | 0.7 ± 0.0071 |

| Sequence | protein stability index |
| --- | --- |
| IIGVKNEGRGRE | 0.724 ± 0.089 |
| IILKEDKSIKKR | 0.6595 ± 0.0032 |
| IITAARGDTLSR | 0.706 ± 0.018 |
| IKDESNLKKHKN | 0.715 ± 0.041 |
| IKGKYYEAKNKI | 0.714 ± 0.054 |
| IKKKKKKKKKRQ | 0.668 ± 0.027 |
| IKKKKKVRYIRI | 0.705 ± 0.06 |
| IKKKKNKKENAE | 0.725 ± 0.092 |
| IKKKTTKTKIKK | 0.741 ± 0.031 |
| IKKNKQNKIKRN | 0.699 ± 0.016 |
| IKNRRTSKYLII | 0.548 ± 0.0058 |
| IKPKKKEKKQEN | 0.704 ± 0.046 |
| IKRYYLDSMKRK | 0.576 ± 0.0069 |
| IKSHHVIPNSCL | 0.616 ± 0.058 |
| IKSKCIQSKETT | 0.6037 ± 0.005 |
| IKVRGEQAEEAE | 0.684 ± 0.04 |
| ILFLRFLHSVFS | 0.5364 ± 0.0038 |
| ILGPPPRLPFPS | 0.657 ± 0.012 |
| ILHCVCFGLFHF | 0.614 ± 0.014 |
| ILPFSGLAFFLP | 0.677 ± 0.039 |
| IMGGPGLTALSR | 0.729 ± 0.061 |
| IMGLGLASAKRM | 0.677 ± 0.073 |
| IMGRRGEDGVID | 0.682 ± 0.061 |
| INGTEYVVGRKA | 0.686 ± 0.0097 |
| INKKETKKNKIK | 0.612 ± 0.073 |

| Sequence | protein stability index |
| --- | --- |
| INTVGRCCGLVE | 0.681 ± 0.043 |
| IPFPSSARLRAD | 0.708 ± 0.02 |
| IPGVPEGLRSLH | 0.629 ± 0.06 |
| IPRGTTTFLLEV | 0.638 ± 0.041 |
| IPRRSSIPDKTP | 0.718 ± 0.045 |
| IPSSMWHICCLC | 0.538 ± 0.025 |
| IQGRFYPLLEAH | 0.606 ± 0.032 |
| IQYGSSVRREGR | 0.72 ± 0.22 |
| IRIDRNLNSLGK | 0.685 ± 0.017 |
| IRIKLTYYKSYL | 0.678 ± 0.13 |
| IRKIIHIDNGNT | 0.741 ± 0.096 |
| IRKNLIPLTIFT | 0.538 ± 0.028 |
| IRMEYVNTVINK | 0.642 ± 0.049 |
| IRPPVLTDAIHS | 0.708 ± 0.013 |
| IRPSVCQAPDMR | 0.679 ± 0.042 |
| IRRGRQGGEHEK | 0.702 ± 0.097 |
| IRSLSGPLSRTF | 0.673 ± 0.076 |
| IRYEVVDLEPRG | 0.693 ± 0.15 |
| ISEIRHSGFTRL | 0.741 ± 0.084 |
| ISGTDGVRHFLG | 0.662 ± 0.018 |
| ISIFTCLGRFSL | 0.677 ± 0.037 |
| ISLRELNEVCRS | 0.668 ± 0.029 |
| ISQNPYNGTGQE | 0.6886 ± 0.001 |
| ISTSPRCCPRLL | 0.714 ± 0.023 |
| ITNKKKIKDKQT | 0.593 ± 0.033 |

| Sequence | protein stability index |
| --- | --- |
| ITQTRGPRPLAH | 0.7471 ± 0.0043 |
| ITSFIKSDKSSK | 0.696 ± 0.029 |
| ITTNTESSRQSY | 0.702 ± 0.014 |
| ITVFRAEVRTKK | 0.6846 ± 0.0054 |
| ITVWVLSDGIGV | 0.5619 ± 0.002 |
| IVDYSRYVIGLE | 0.663 ± 0.0095 |
| IVFTPPSVTFHA | 0.825 ± 0.22 |
| IVLGPHNFLTIL | 0.676 ± 0.018 |
| IVLSRVHLLVGP | 0.5798 ± 0.0032 |
| IVPFLLFYSPPA | 0.719 ± 0.055 |
| IVRNDRSGPWGD | 0.756 ± 0.12 |
| IYFRILKKRSKT | 0.639 ± 0.02 |
| IYGCISVYYSSG | 0.562 ± 0.014 |
| IYSPLSPSTAPA | 0.664 ± 0.012 |
| IYSTRWRRGRVE | 0.699 ± 0.044 |
| KAAQREVDLLVT | 0.668 ± 0.021 |
| KAHSFAYVINCL | 0.589 ± 0.045 |
| KAKKLRKKNENK | 0.671 ± 0.038 |
| KAKKNNERAKHR | 0.681 ± 0.029 |
| KDATVILSSRRR | 0.745 ± 0.024 |
| KDCGSVRQGLRY | 0.754 ± 0.04 |
| KDGAGGDWDVGE | 0.6948 ± 0.006 |
| KDINNQKKETQR | 0.683 ± 0.047 |
| KDIVSQEEHAPL | 0.678 ± 0.036 |
| KDNAPTLPQGGN | 0.662 ± 0.06 |

| Sequence | protein stability index |
| --- | --- |
| KDTGTNKASRGQ | 0.67 ± 0.014 |
| KEATTEKNTTRA | 0.6895 ± 0.0023 |
| KEILATRQKSST | 0.738 ± 0.04 |
| KEKSSKRSGKTE | 0.644 ± 0.15 |
| KENKKKNKKYKK | 0.785 ± 0.16 |
| KERYKNHGQKAS | 0.683 ± 0.017 |
| KETNIKKRRARG | 0.6458 ± 0.0021 |
| KFKGIKEINNGN | 0.633 ± 0.074 |
| KGGCPTASARVL | 0.5735 ± 0.0011 |
| KGGKVGRAGEKG | 0.644 ± 0.098 |
| KGIGWSSDGGMG | 0.67 ± 0.02 |
| KGKGREEEDISK | 0.674 ± 0.015 |
| KGKKTTKTDAKK | 0.612 ± 0.061 |
| KGKRGKKKEESN | 0.6515 ± 0.0039 |
| KGNDQVLRLFIR | 0.73 ± 0.021 |
| KGNRGKDAVKTE | 0.7556 ± 0.004 |
| KGRFILKCKDIF | 0.637 ± 0.071 |
| KGRFTKTKLRVH | 0.5602 ± 0.0013 |
| KGRGEVGTRRYG | 0.638 ± 0.079 |
| KGRSKHIKGKRR | 0.743 ± 0.033 |
| KGTKIGRPVRVI | 0.689 ± 0.016 |
| KHLNFNTNKRKD | 0.651 ± 0.0093 |
| KHPMRLPHTRRA | 0.706 ± 0.045 |
| KHTNWGKQLIMT | 0.5631 ± 0.0016 |
| KICHTKKKNKKK | 0.769 ± 0.046 |

| Sequence | protein stability index |
| --- | --- |
| KIGSQLAGYKIS | 0.595 ± 0.063 |
| KIKKKKKNTKTK | 0.666 ± 0.047 |
| KIKKRRKKDNKR | 0.7145 ± 0.0013 |
| KIKSKKEKPQVT | 0.687 ± 0.023 |
| KIKTKKGTKKRK | 0.677 ± 0.039 |
| KIRINKKVKNKK | 0.671 ± 0.005 |
| KITLKSNKTTDN | 0.741 ± 0.018 |
| KIVCTLGPAFAR | 0.672 ± 0.051 |
| KIVKNQKKKKQR | 0.732 ± 0.019 |
| KKARGYTLEQRR | 0.736 ± 0.051 |
| KKEEEGNREEKL | 0.689 ± 0.038 |
| KKEEEGRTKECR | 0.694 ± 0.093 |
| KKEEKKKNKNDR | 0.679 ± 0.027 |
| KKEISEKTNKKL | 0.69 ± 0.012 |
| KKEKKVKKNRKR | 0.729 ± 0.021 |
| KKEKQKKKIKTK | 0.703 ± 0.055 |
| KKERTGTKKKKK | 0.698 ± 0.048 |
| KKESNFVKKKEI | 0.741 ± 0.024 |
| KKGIKEYYKVQK | 0.775 ± 0.16 |
| KKHEKVKSNTKR | 0.666 ± 0.03 |
| KKIYEKRKKLRK | 0.756 ± 0.057 |
